From paper PMC6657595, “A DNA-Binding Protein Tunes Septum Placement during Bacillus subtilis Sporulation”

Legend:
Experiment in all cases: EMSA
Conditions in all cases: 150 mM KCl, 10 mM Tris-HCl pH 8.0; EMSA 10 nM DNA, 30 min, gel at room temperature; BLI 800 nM protein, 30 C
[1] = biological target: T1, RefZ E117D-His6 E117D (Bacillus subtilis 168) (UniProt O34970)
T1 sequence: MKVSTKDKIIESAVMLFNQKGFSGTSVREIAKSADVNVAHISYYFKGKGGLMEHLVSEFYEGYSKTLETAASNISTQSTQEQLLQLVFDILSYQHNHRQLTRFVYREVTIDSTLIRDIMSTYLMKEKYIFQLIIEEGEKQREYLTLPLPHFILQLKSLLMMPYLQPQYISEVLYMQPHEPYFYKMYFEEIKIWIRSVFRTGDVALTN

[2] = biological target: T2, RefZ E117G-His6 E117G (Bacillus subtilis 168) (UniProt O34970)
T2 sequence: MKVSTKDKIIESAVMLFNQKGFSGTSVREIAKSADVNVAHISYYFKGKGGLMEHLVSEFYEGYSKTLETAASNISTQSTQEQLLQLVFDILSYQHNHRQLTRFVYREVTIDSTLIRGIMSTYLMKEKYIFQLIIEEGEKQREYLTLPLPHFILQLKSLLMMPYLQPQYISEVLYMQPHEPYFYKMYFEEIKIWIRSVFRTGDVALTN

[3] = biological target: T3, RefZ E179K-His6 E179K (Bacillus subtilis 168) (UniProt O34970)
T3 sequence: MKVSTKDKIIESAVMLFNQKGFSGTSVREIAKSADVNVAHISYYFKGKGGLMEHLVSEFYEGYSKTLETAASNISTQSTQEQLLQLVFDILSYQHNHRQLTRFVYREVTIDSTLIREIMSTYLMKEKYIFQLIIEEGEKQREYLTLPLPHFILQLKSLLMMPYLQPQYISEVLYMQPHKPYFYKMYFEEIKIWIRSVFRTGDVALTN

[4] = biological target: T4, RefZ E53K-His6 E53K (Bacillus subtilis 168) (UniProt O34970)
T4 sequence: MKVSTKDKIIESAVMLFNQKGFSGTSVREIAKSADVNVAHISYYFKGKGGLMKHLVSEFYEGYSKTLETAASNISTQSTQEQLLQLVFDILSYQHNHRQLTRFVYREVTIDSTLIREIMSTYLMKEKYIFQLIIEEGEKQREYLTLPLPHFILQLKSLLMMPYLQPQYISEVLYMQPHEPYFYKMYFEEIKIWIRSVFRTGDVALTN

[5] = biological target: T5, RefZ E61K-His6 E61K (Bacillus subtilis 168) (UniProt O34970)
T5 sequence: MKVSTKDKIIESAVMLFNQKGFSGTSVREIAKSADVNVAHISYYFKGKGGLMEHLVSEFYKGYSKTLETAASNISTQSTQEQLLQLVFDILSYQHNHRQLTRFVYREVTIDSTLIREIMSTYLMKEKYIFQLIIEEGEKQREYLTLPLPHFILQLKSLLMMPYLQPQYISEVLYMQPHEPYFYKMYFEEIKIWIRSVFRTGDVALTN

[6] = biological target: T6, RefZ L153R-His6 L153R (Bacillus subtilis 168) (UniProt O34970)
T6 sequence: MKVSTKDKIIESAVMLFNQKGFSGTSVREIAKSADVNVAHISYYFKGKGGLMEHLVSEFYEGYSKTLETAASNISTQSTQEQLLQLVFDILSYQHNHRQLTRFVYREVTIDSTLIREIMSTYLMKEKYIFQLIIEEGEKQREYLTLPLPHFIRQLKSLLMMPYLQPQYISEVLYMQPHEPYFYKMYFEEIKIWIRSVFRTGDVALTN

[7] = biological target: T7, RefZ R102C-His6 R102C (Bacillus subtilis 168) (UniProt O34970)
T7 sequence: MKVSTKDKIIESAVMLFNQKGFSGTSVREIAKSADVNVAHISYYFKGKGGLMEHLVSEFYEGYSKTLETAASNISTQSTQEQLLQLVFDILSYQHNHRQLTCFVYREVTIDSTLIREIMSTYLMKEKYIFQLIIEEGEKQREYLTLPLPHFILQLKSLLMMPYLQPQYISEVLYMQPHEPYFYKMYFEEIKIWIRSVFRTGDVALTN

[8] = biological target: T8, RefZ R102S-His6 R102S (Bacillus subtilis 168) (UniProt O34970)
T8 sequence: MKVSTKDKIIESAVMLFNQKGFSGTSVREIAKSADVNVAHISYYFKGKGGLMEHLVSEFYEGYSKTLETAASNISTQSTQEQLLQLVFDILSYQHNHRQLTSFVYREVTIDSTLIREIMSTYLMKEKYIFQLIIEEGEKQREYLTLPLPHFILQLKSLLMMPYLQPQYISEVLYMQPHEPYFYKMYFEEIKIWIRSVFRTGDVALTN

[9] = biological target: T9, RefZ R116S-His6 R116S (Bacillus subtilis 168) (UniProt O34970)
T9 sequence: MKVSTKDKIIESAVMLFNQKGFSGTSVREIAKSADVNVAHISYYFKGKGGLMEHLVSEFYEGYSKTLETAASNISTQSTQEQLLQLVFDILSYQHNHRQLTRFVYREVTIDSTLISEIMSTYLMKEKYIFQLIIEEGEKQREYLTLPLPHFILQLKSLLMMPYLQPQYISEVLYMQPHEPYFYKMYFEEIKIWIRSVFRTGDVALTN

[10] = biological target: T10, RefZ R116W-His6 R116W (Bacillus subtilis 168) (UniProt O34970)
T10 sequence: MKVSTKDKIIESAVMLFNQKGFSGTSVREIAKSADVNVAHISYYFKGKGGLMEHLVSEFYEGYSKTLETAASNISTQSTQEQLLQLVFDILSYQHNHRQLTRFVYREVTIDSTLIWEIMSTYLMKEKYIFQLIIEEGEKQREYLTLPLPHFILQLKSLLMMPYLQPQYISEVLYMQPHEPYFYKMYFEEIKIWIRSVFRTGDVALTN

[11] = biological target: T11, RefZ-His6 (WT) (Bacillus subtilis PY79) (UniProt O34970)
T11 sequence: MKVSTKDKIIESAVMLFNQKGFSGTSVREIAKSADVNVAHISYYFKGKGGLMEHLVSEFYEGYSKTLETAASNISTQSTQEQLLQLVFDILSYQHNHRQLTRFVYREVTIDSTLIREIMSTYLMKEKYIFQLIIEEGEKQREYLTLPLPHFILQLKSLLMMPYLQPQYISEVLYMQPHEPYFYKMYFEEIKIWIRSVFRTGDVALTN

## ATCAGCGCTCTGGTGATTGCAAGCTGCTGCTGTTGACCGCCTTTTCGTTTTGAACAAACGTTTGATTAAAACAAATAGCCCCCTCTGTTTAGCCGGAGTCGGCCTAATACAGCGACAATCTGCCCCGGGCGAAGCTAAGGCTGTGCAAAA (double strand) [RBML1 150-bp probe]
[1]
  binding: binds
[2]
  binding: binds
[3]
  binding: binds
[4]
  binding: binds
[5]
  binding: binds
[6]
  binding: binds more weakly
[7]
  binding: binds
[8]
  binding: binds
[9]
  binding: binds
[10]
  binding: binds
[11]
  binding: binds
